Measured values taken from patent US20240117035A1.

Legend:
[1] = biological target: SNU620 (human) (UniProt P56856); assay: FACS binding, SNU620 cells; conditions: bispecific antibody
[2] = biological target: Jurkat (human) (UniProt P07766); assay: FACS binding, Jurkat cells; conditions: bispecific antibody
Jurkat (human), sequence (P07766 23-207): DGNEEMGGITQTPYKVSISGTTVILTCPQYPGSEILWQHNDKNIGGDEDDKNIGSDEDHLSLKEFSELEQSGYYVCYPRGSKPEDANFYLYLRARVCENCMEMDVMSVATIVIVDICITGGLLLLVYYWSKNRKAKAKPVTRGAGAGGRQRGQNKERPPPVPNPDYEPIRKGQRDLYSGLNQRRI

AMG-910
EC50 [1]: 0.0878 µM | EC50 [2]: 0.00055 µM
